Among the data in a protein production outcome set (Wang et al. 2014) are protein production values, retold here.

The data set can be described thus: label from the status in PepcDB records.

As for “MPWQQQPIRYSADLEKPSPREQADIEKIMAKLLKNNERAYDKYKHGLRDAHAKSHAILRGELIVNEGLPPELAQGLFAEPRTYPVIARLSSTSGVRRSDKTRGVRGLGLKVLGVQGEKILPDDSSTNQDFVMVTHEDFLFADAHAYAGLGMITASLLARLSDQALWLGSGLLDLVSKAGIKLPDNLMVFVAPNRPILGLEFFSSAPFRHGDHVAKYRFAPASENVKALSGQLLPRNPAPEQHRDMIAEFFADQTAEFDFSAQLCTDPVAMPIEDAGKNWDKSISPYVSVAKIVFGPQNPYSALRRAYGDDVLAFNSWRGLAEHRPLGSINRLKKTVYESSADYRHRVNRIDRHEPLEHHHHHH”, the protein production entry is “failed”.

With “MPYDTSNNTLIVSTRNHQDDDETAIVDDLQRLVNYQISDGGNINHQYFQIAQQFHHTQQQNANANALQLVAAATTATTLMPQTQAALAMNMIPAGTIPNNALWDMWNPIVPDGNRDHYTNIPFK”, the protein production result is “failed”.

Turning to “MPYFYVFLLLLTSLLWGGNFVVGKSLVDHASPMTLTNLRWMIAIVCLLPMVWFKEKKILPPRTAILPLILMGISGVALFNIFQFLALEKTSATNVGLISTLNAISIALFSVLFLKEKVNTLQILSMILSFFGVILVLLKGDFSLLFSLHFNSGDLWMIAAVCIWGIYSVCSKWATKTTTPLMATLYSGIFGVILLLPFNIGSFTVSNINTSFITSLLYTGLISTVLCMVFWNIGVQKLGATTSGIFLNFNPIFTAILAFIFLGEELTWIQILGTIVVVTGCYLFSHFKTVAVQPVRPLMRKHS”, the protein production entry is “failed”.

For “MPYKNILTLISVNNDNFENYFRKIFLDVRSSGSKKTTINVFTEIQYQELVTLIREALLENIDIGYELFLWKKNEVDIFLKNLEKSEVDGLLVYCDDENKVFMSKIVDNLPTAIKRNLIKDFCRKLS”, the protein production entry is “not failed”.

Take “MPYLLLTLAALFWGGNYVVGHVLVQGVDPILMTEARWALTALLLGLLYRRQIAGSRRLLRANAPAVVVLTLCGQVSFPLTLYIGLQTTSALNAAIYMSATPSMVLLINRLFFRDPVSGRNWLGVAFSTLGVMILLFQGNPLHAASLHTFAIGDLWAMGSALSWALYCSLLRLKDRRIPANGFVAVSSLLGALILVPIVIFWLMRHPAQDWAAWREPFFLSGLAYLVIFPSWLAYLFWNKGIATIGATRGEIYTHIIPLSGGVLSILFLHTQPHAWHLFSALFIMVGIGICSLEKRQAASIRLRD”: the protein production result is reported as “failed”.

Take “MQALTTYKCIEKGIVVWLTGLPGSGKTTIATRLADLLQKEGYRVEVLDGDWARTTVSEGAGFTREERLRHLKRIAWIARLLARNGVIVICSFVSPYKQARNMVRRIVEEEGIPFLEIYVKASLEEVIRRDPKGLYKKALKGELENFTGITDPYEPPENPQLVLDTESNTIEHNVSYLYSLVKAVIE”: the protein production result is “not failed”.

For “MQAVALENDVIRRFASGQMFPMAKLVLETAFQPIVEATTGTIFGYESLMRGHDRLGFSSPLALLDQAAADGELKAFEQMLASRALAKFSTLPDFSSATLFLNLDVRLIPHGDVILDKLVGHLARAGIPASSICFELSERFDNTSVPEFTSLIARMRKEGFKLAIDDFGAGHGEMKLLCDFPLDYLKIDRHFISGIDHLPRKQHLVRNIVNIAHVLGVRVIAEGIETEAEFLSCREFGVDLVQGWLIAKPTVFTSELPESFPHLNRVGVARRNSQTLDEILIRREIERLPTVFEHDSVDSVFELFRRNPQQAFFPVLNANGEPRGVINEYHLKEYIYRPFGRDLLKNKIYERTISHFVDPAPIVGLDADADQLMNMFASMGGMGGSACIILTENMRYAGIVSAASLIKVINEKQLKMAQDQNPLTALPGNRAIGGFIADSCSDGDETRFFCYCDFDNFKPFNDKYGFNAGDHAITLFSALMRRYFFAGDCFLGHIGGDDFFIGVRDWSVEELMEILERLLSDFHDDVAGLYSDEDRAAGCMKGQDRNGNERDFALLRCSIGVLTLPKGSIIANPERIGSEIASVKAAAKENEGGLVVRVFGEANLEHHHHHH”, the protein production result is reported as “failed”.

As for “MQDAFEVALPLFLIMDPVGNAAASLAILREHTPSRQRAIIRRELVFALAIVLLFHFLGDALLGLLDIEQSTLRLSGGIILFIIAMKMVFPPAQENDPEAVTRDPFIVPIAVPLIAGPSLLAAVMVYARQAQAGMMGQASVLGGVLMAWGATALIMAFTPDLARILGPRAMRAMERLMGLILILMAVQMLENGIRIFVQSL”, the protein production result is reported as “failed”.

For “MQDFKKLPTVLTAEELIDKIFRRAARVEGRNPKEKALNKLATISNVSRDYFGKIIGAHPSYENLPDFYREMVDVVVGIRQLKKSLVALKWADGMIQKVVSRAVREVKGGKNPSAVVKSAYGRVASIIEQIDDELRFLNDAKNRMREIPILQDLPTIVVAGYPNVGKSSLVARISTVKPEVASYPFTTKKINLGFAEFAGKRVQIIDTPGLLDRPLSKRNRIERRAVLALKHLADIILFVIDPTETCGYSLEKQLSLLEEIKGYFAKPTVEVYSKADMHDRRDRQAYSAVTGEGIDELIKEIEKMVKIHSQTSTVIAPSGQTSTQEQHSLEHHHHHH”, the protein production result was “failed”.

With “MQDIHFRRHYVRHLPKEVSQNDIIKALASPLINDGMVVSDFADHVITREQNFPTGLPVEPVGVAIPHTDHKYVRQNAISVGILAEPVNFEDMGGEPDPVPVRVVFMLALGESNKQLNVLGWIMDVIQDEDFMQQLLVMNDDEIYQSIYTRISERGEV”, the protein production entry is listed as “not failed”.

Take “MQDNNGPCRNFYQLVFEEGKFMPRAFLSHSSADKKSYVEMVAKKLGYNTCVYDEFSFEEGMKSAEEIMKGLSRSDLFVLFLSDSALESNWVKNELNTAQELLNTGDMKRILPIIIDKNITYKDNRIPQWLRDEYNLKYVSRPTVAARRITQKLREISWEQHPRLKEKDQIFVGRNNLTKTFEERIDAFDLQTPTCIFASGIRKIGRRTLLKNCLTKSNVVDDSYQPPIITLNSHEGLEDFIIRIYDLGFSGEFNLSDFMTTEIDHKIGIATELIRDIQVAKEILFILDNGCIITPDREINQWFLQILSHLPNQDRVTFGIASSFRLDKKYIRTRNNIFYIEVPELDKVEREGLLKRYSKFEKLELQPDELKFFGDLLNGYPEQVYYAVDLIKDLGIFQAKKDSYLIQEFNTERVNILMNKYDNNQKSKDFLYFLSEFEFVDYDFIFEIVGDEEFYINLLNELLASAICEHLGANKEYIRINDIIRDFVKRNNLSLPKEYKDKLEDHLNNFLSNYQKEEKSAADLLYSMKEALIQGKSIDEKYLIPSQFLKTMTELYDRHKRYGEIVKLADRVLQNEEYMDHRITEEIRYYLCLALARQKDSRFLQEVQKIDGANHDFLFGFFFRITGNYRKAIERLETAIEKRPHFSFAERELVNVYLLIEDFERALTLAKQNYERDKNNPYHIQAYFRCLIAEDKINGNEEKMEELLDNLNKLKTEKAKQMYMRAKAQYLAFHKDDEIGALELADLATKTYSHDIYCWFTKFDICEKYDKIDEMGNILKVLDKMIDKNSSFYSILINLKALYLAKSDQKPEALKLVFSLNNYPENALDKIIKRIESTKIPRMNKRSIKI”: the protein production entry is on record as “failed”.

In the case of “MQDSFFSFLSSPINLLFLFVAFFLLFVTPWLWNIVNSAHNIHKLLDPLGIKKKENSLPVTGLLFLPLLLIIIFIEWFWPLANITLFPILASPYIKFNIIAVISVVILLILIQCDKKKSMELWVLAYAAVLYLLYLIIIMATVVVGMNAFPASHYIFAPESSMTINRTIIYGLLIAHLIFIWLTISLKFTWRLLLMILYTLALSFAYFSLIVS”, the protein production result is recorded as “failed”.

Regarding “MQEQVSNVRARIYKPAKSTMQSGHSKLKAWKLEFEPSCTQYTEPLMNWTGSHDTKQQVCLSFTTRELAIAYAVAHKIDYTVLQDNPRTIVPKSYADNFTKPRDM”, the protein production result is on record as “not failed”.

Regarding “MQFIKRAHGEEQPYWPAGPFKIRLPFVHYRWELPEMIQGFFMFVVGLAMIPLLESYLGMPYEAALAFTFVAGVGYILPALLGVPLVPGWITPAIPVVLLYLKGFEPGPEAIRALFALQIEVAIIFLILGATRLGSKLVDVIPNSLKCGIIIGAGMAAMMGELKIGGRIDATPISLIVGSIISAYILFSLSFKNVINENSFARKIANFGMVPGMIIAMLVGWTVGEYPLPDIKWGITNPDFSLMWQYLPFTVGYPDWEIFLLAIPTALIAYVIAFGDILVGFTLVNRVDHIRKDEKIEENVDRVHLVTAIRNGFHAFLAPWPGLAGPLWTAAHATVAERYAMGRKSMESIYSGGGTFWMSGLLALFALPLVTLFKPVLPIALSLTLVLTAYICIMVGMEQLKNSTERGVAGIVAVTLAMPDPKSTMYAVCIGVILYFLIERPRLMGKHNSEDNIIFADETQEEVAVTNSNNT”, the protein production result is “failed”.

For “MQFIYSIIGILLVLGIVYAISFNRKSVSLSLIGKALIVQFIIALILVRIPLGQQVVSVVSTGVTKVINCGQAGLNFVFGSLADSGAKTGFIFAIQTLGNIVFLSALVSLLYYVGILGFVVKWIGKGVGKIMKSSEVESFVAVANMFLGQTDSPILVSKYLGRMTDSEIMVVLVSGMGSMSVSILGGYIALGIPMEYLLIASTMVPIGSILIAKILLPQTEPVQKIDDIKMDNKGNNANVIDAIAEGASTGAQMAFSIGASLIAFVGLVSLINMMLSGLGIRLEQIFSYVFAPFGFLMGFDHKNILLEGNLLGSKLILNEFVSFQQLGDLIKSLDYRTALVATISLCGFANLSSLGICVSGIAVLCPEKRGTLARLVFRAMIGGIAVSMLSAFIVGIVTLF”, the protein production result was “failed”.

Turning to “MQGADADTVADALASDDALPGAGGFAGELDGTLVRDVLGRYPLFVERAVSDEARLDPGQWSHDPTALADPRSFPAGHIRNESGTQQRWSLPSLDPFGDRETAIETVGETVETSIDAVDTDSLAIAFSGGVDSALLAARLDAPLYVAGFPDSHDIEAARSAAELLGTEVRVVELTHDAIERAVPEIARATARTNAMDVQIALPLYLVAERVAGDGFDRLALGQGADELFGGYAKVAKAPEDPRVEADTVRGAQREVIASLPDQLERDVLALRAAGVEPVTPLLHDRVIGAALRLDGDLLVDGETRKVALRAAARESLPDEIADRDKKAAQYGSLAARELDRLARQAGYKRRMDDHVTQYVESLVE”, the protein production result was “failed”.

In the case of “MQGAGRLMQPRPDSAFVHDVRVTWGDCDPAKIAYTGHLPRFALEAIDAWWSEYHGPGGWYHLELDTNVGTPFVRLEMDFKSPVTPRHILKCHTWPTRLGTKSITFRVDGVQDGVTCFVGAFTCVFTIADQFKSQPAPDHLRALIEPHIPA”, the protein production entry was “not failed”.

Take “MQGQEDEVVLVEGPTLPETPRLFPLKIRCRADLVRLPLRMSEPLQSVVDHMATHLGVSPSRILLLFGETELSPTATPRTLKLGVADIIDCVVLTSS”: the protein production result was “not failed”.

For “MQGTKIRLMVGGLLLAAASNNVQAEALQPDPAWQQGKLDNGFSWQLLATPQRPSDRIELRLIVNTGSLSENTQEVGFAHLLPRLALMSSASFTPAQLQSLWQQGIDNERPLPPAITSYDFTLYSLSLPNNRPDLLKDALAWLSDTAGNLAVSEQTVNAALNTATDPIATFPQNIQEPWWRYRLKGSSLIGHDPGQPVTQPVDVEKLKQFYQQWYTPDAMTLYVVGNVDSRSIAAQISKAFSELKGKRTAPAAVATLAPLPPEPVSLMNEQAAQDTLSLMWDTPWHPIQDSMALSRYWRSDLAREALFWHIKQVLEKNNQKNLKLGFDCRVQYQRAQCAIHLNTPVENLTANMTFVARELAALRANGLSQAEFDALMTQKNDQLSKLFATYARTDTDILMSQRLRSQQSGVVDIAPEQYQKLRQAFLSGLTLAELNRELKQQLSQDTTLVLMQPKGEPEVNVKALQEIYNGIMAPQTVAEEEVAPAEAVETAPVMPTTAQ”, the protein production result is reported as “failed”.

As for “MQGVLLALVPMFAWGSIGFVANKFGGDAKQQTLGMTLGAFVFALIVFLFRMPTLTWQIFLIGFIGGLLWAIGQFGQFNSMKYMGVSVASPLSSGSQLVIGGLIGVFAFHEWTKQIQFILGFIAMAVLVVGFYFSAKRDPENAVVEEGRNYTKGLTALTYSTLGYVIYVILFNNLAVLWFNVHFDTLTIILPMSVGMIFGALVMGRFKIKMEKYVYQNMIVGAMWGVGNIFMLMAASAAGNAIAFSFSQLGVIVSTIGGILFLGEKKTKKELVYVGIGIVLFVTGAILLAIVKSKG”, the protein production result was “failed”.
